Numbering of substitutions follows the chain as printed.
B1: humanized anti-CD20 antibody 2H7.v16, antibody pool with 35% to 37% nonfucosylation (from RNAi2 / RNAi4 transiently transfected clone #60 cells) (antibody, human IgG1, kappa)
heavy: not shown
light: DIQMTQSPSSLSASVGDRVTITCRASSSVSYMHWYQQKPGKAPKPLIYAPSNLASGVPSRFSGSGSGTDFTLTISSLQPEDFATYYCQQWSFNPPTFGQGTKVEIKRTVAAPSVFIFPPSDEQLKSGTASVVCLLNNFYPREAKVQWKVDNALQSGNSQESVTEQDSKDSTYSLSSTLTLSKADYEKHKVYACEVTHQGLSSPVTKSFNRGEC
modifications: N-linked glycan at Asn297; about 35 to 37% nonfucosylated
notes: differs only in fucose content of the Fc glycan; In the ELISA the IgG was complexed with goat F(ab')2 anti-kappa; RNAi2 and RNAi4 pools are reported together; also called 2H7 antibody pool with 35% to 37% nonfucosylation; lower fucose containing 2H7 antibodies
B2: humanized anti-CD20 antibody 2H7.v511 containing 94-95% nonfucosylation (from best stable clone RNAi2.4-3d) (antibody, human IgG1, kappa)
heavy: EVQLVESGGGLVQPGGSLRLSCAASGYTFTSYNMHWVRQAPGKGLEWVGAIYPGNGATSYNQKFKGRFTISVDKSKNTLYLQMNSLRAEDTAVYYCARVVYYSYRYWYFDVWGQGTLVTVSSASTKGPSVFPLAPSSKSTSGGTAALGCLVKDYFPEPVTVSWNSGALTSGVHTFPAVLQSSGLYSLSSVVTVPSSSLGTQTYICNVNHKPSNTKVDKKVEPKSCDKTHTCPPCPAPELLGGPSVFLFPPKPKDTLMISRTPEVTCVVVDVSHEDPEVKFNWYVDGVEVHNAKTKPREEQYNATYRVVSVLTVLHQDWLNGKEYKCKVSNAALPAPIAATISKAKGQPREPQVYTLPPSREEMTKNQVSLTCLVKGFYPSDIAVEWESNGQPENNYKTTPPVLDSDGSFFLYSKLTVDKSRWQQGNVFSCSVMHEALHNHYTQKSLSLSPGK
light: B1 light with M32L, S91A
modifications: N-linked glycan at Asn297; 94-95% nonfucosylation
notes: In the ELISA the IgG was complexed with goat F(ab')2 anti-kappa; also called hu2H7.v511; 95% nonfucosylated material
B3: humanized anti-CD20 antibody 2H7.v511 containing 65% nonfucosylation (from transient run) (antibody, human IgG1, kappa)
heavy: B2 heavy
light: B1 light with M32L, S91A
modifications: N-linked glycan at Asn297; 65% nonfucosylation
notes: In the ELISA the IgG was complexed with goat F(ab')2 anti-kappa; also called hu2H7.v511; v511-NF
B4: humanized 2H7.v16 antibody from stable RNAi4 clone 5F (70% non-fucosylation) (antibody, human IgG1, kappa)
heavy: not shown
light: B1 light
modifications: N-linked glycan at Asn297; 70% non-fucosylation
notes: Glycoform preparation of 2H7.v16 from clone 60 stably transfected with the RNAi4 construct
B5: humanized 2H7.v16 antibody from stable RNAi4 clone 6C (60% non-fucosylation) (antibody, human IgG1, kappa)
heavy: not shown
light: B1 light
modifications: N-linked glycan at Asn297; 60% non-fucosylation
notes: as for B4
B6: humanized 2H7.v16 antibody from stable RNAi4 clone 5B (45% non-fucosylation) (antibody, human IgG1, kappa)
heavy: not shown
light: B1 light
modifications: N-linked glycan at Asn297; 45% non-fucosylation
notes: as for B4
B7: humanized 2H7.v16 antibody from clone 'Control' of Table 1 (3% non-fucosylation) (antibody, human IgG1, kappa)
heavy: not shown
light: B1 light
modifications: N-linked glycan at Asn297; 3% non-fucosylation
B8: humanized 2H7.v16 antibody from stable RNAi4 clone 7C (63% non-fucosylation) (antibody, human IgG1, kappa)
heavy: not shown
light: B1 light
modifications: N-linked glycan at Asn297; 63% non-fucosylation
notes: as for B4
B9: humanized 2H7.v16 antibody from clone 'Parent' of Table 1 (5% non-fucosylation) (antibody, human IgG1, kappa)
heavy: not shown
light: B1 light
modifications: N-linked glycan at Asn297; 5% non-fucosylation

Target: T1, human FcγRIII (F158), low affinity isotype (human, UniProt P08637 17-208)
T1 construct: Receptor captured on plates by anti-GST (clone 8E2.1.1); also called FcγRIII (F158 allele); FcγRIIIA (F158); not shown: GST tag implied by capture on anti-GST coated plates
T1 sequence (P08637 17-208): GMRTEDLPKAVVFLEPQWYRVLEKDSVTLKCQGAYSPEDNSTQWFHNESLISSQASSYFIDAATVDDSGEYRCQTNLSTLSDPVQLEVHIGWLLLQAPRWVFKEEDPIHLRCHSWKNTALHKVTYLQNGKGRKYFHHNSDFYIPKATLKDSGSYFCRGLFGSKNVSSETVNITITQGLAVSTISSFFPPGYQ
Test: FcγR binding ELISA; relative to 2H7 control cell line antibody (2 to 4% nonfucosylated)

B1 was tested. Which “fold increase in binding affinity” value did it give?
Its value is 6 fold.

Target: T2, human FcγRIII (V158), high affinity isotype (human, UniProt P08637 17-208)
T2 construct: Receptor captured by anti-GST; construct not described; also called FcγRIII (V158 allele); FcγRIIIA (V158); not shown: GST tag implied by capture on anti-GST coated plates
T2 sequence (P08637 17-208 F176V): as the sequence (P08637 17-208) above, with F160V counted along it
Test: as above

Which “fold increase in binding affinity” value does the source give for B1 here?
Its value is 4 fold.

Target: T1, human FcγRIII (F158), low affinity …
Test: FcγRIII binding ELISA; relative to control 2H7.v511 antibody pools with about 5% nonfucosylation
Description: (§1) Plates were washed with PBS containing 0.05% polysorbate, pH 7.4 (wash buffer) and blocked with PBS containing 0.5% BSA, pH 7.4, at 150 μl/well. After a one-hour incubation at room temperature, plates were washed with wash buffer. Human FcγRIII was added to the plates at 0.25 μg/ml, 100 μl/well, in PBS containing 0.5% BSA, 0.05% polysorbate 20, pH 7.4. (assay buffer). The plates were incubated for one hour and washed with wash buffer. Antibodies were incubated with goat F(ab′)₂ anti-K (Cappel, ICN Pharmaceuticals, Inc., Aurora, Ohio) at a 1:2 (w/w) ratio for 1 hour to form antibody complexes. Eleven […] serial dilutions of complexed IgG antibodies (0.85-50000 ng/ml in threefold serial dilution) in assay buffer were added to the plates. After a two-hour incubation, plates were washed with wash buffer. Bound IgG was detected by adding peroxidase labeled goat F(ab′)₂ anti-human IgG F(ab′)₂ (Jackson ImmunoResearch, West Grove, Pa.) at 100 μl/well in assay buffer. After a one-hour incubation, plates were washed with wash buffer and the substrate 3,3′,5,5′-tetramethyl benzidine (TMB) (Kirkegaard & Perry Laboratories) was added at 100 μl/well. The reaction was stopped by adding 1 M phosphoric acid at 100 μl/well. Absorbance was read at 450 nm on a multiskan Ascent reader (Thermo Labsystems, Helsinki, Finland). The absorbance at the midpoint of the standard curve (mid-OD) was calculated. The corresponding concentrations of standard and samples at this mid-OD were determined from the titration curves using a four-parameter nonlinear regression curve-fitting program (KaleidaGraph, Synergy software, Reading, Pa.). The relative activity was calculated by dividing the mid-OD concentration of standard by that of sample.
(§2) A FcγRIII binding assay was done with antibody 2H7.v511 containing either 65% nonfucosylation (from transient run) or 94-95% nonfucosylation (from best stable clone RNAi2.4-3d).

B2 was tested. Which “fold increase in affinity” value did it give?
The value was 9.8 fold.

Which “fold increase in affinity” value does the source give for B3 here?
The value was 6.2 fold.

Target: T2, human FcγRIII (V158), high affinity …
Test: as above
Description: as §1, §2

For B2, which “fold increase in affinity” value is on record?
Its value is 6.8 fold.

Which “fold increase in affinity” value does the source give for B3 here?
Its value is 4.8 fold.

Target: T1, human FcγRIII (F158), low affinity …
Test: FcγRIII binding ELISA; anti-GST captured receptor, IgG complexed with anti-kappa F(ab')2; relative activity
Description: as §1, with “MaxiSorp 96-well microwell plates (Nunc, Roskilde, Denmark) were coated with 2 μg/ml anti-GST (clone 8E2.1.1, Genentech), at 100 μl/well in 50 mM carbonate buffer, pH 9.6, at 4° C. overnight. Plates” for “Plates”

With B4 as the binder, how does the “Binding (fold)” value read?
The value was 52.4 fold.

B5 was tested. Which “Binding (fold)” value did it give?
Its value is 34 fold.

How did the “Binding (fold)” value turn out when B6 was run?
The value was 24.2 fold.

For B7, which “Binding (fold)” value is on record?
Its value is 1 fold.

For B8, which “Binding (fold)” value is on record?
Its value is 32.4 fold.

For B9, which “Binding (fold)” value is on record?
Its value is 1 fold.

Target: T2, human FcγRIII (V158), high affinity …
Test: as above
Description: as §1, with “MaxiSorp 96-well microwell plates (Nunc, Roskilde, Denmark) were coated with 2 μg/ml anti-GST (clone 8E2.1.1, Genentech), at 100 μl/well in 50 mM carbonate buffer, pH 9.6, at 4° C. overnight. Plates” for “Plates”

Which “Binding (fold)” value does the source give for B4 here?
The value was 13.7 fold.

Which “Binding (fold)” value does the source give for B5 here?
The value was 10.1 fold.

How did the “Binding (fold)” value turn out when B6 was run?
The value was 7.5 fold.

Which “Binding (fold)” value does the source give for B7 here?
The value was 1 fold.

Which “Binding (fold)” value does the source give for B8 here?
Its value is 10.4 fold.

B9 was tested. Which “Binding (fold)” value did it give?
Its value is 1 fold.
